T1: murine IL27 receptor (IL27Ra and gp130) on mouse cells (MC9/STAT3-Luc reporter cells; splenic CD4+ T cells) (mouse, UniProt O70394 25-623; Q00560 23-917)
T1 sequence (looked up) 1: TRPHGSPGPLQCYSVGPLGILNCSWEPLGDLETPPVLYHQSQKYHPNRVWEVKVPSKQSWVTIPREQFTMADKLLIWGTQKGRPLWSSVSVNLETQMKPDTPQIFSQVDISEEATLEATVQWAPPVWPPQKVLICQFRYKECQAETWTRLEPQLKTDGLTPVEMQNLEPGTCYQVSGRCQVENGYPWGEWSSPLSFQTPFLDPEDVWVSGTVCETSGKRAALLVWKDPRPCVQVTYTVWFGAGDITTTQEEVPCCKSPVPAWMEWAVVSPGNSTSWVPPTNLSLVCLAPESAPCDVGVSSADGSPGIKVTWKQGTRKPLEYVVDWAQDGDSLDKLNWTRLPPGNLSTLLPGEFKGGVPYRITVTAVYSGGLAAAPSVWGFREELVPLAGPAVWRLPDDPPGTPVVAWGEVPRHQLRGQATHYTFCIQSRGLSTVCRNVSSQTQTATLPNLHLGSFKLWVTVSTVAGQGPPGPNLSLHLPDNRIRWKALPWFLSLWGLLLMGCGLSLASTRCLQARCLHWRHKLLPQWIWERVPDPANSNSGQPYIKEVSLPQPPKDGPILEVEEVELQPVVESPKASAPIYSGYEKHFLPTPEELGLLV
T1 sequence (looked up) 2: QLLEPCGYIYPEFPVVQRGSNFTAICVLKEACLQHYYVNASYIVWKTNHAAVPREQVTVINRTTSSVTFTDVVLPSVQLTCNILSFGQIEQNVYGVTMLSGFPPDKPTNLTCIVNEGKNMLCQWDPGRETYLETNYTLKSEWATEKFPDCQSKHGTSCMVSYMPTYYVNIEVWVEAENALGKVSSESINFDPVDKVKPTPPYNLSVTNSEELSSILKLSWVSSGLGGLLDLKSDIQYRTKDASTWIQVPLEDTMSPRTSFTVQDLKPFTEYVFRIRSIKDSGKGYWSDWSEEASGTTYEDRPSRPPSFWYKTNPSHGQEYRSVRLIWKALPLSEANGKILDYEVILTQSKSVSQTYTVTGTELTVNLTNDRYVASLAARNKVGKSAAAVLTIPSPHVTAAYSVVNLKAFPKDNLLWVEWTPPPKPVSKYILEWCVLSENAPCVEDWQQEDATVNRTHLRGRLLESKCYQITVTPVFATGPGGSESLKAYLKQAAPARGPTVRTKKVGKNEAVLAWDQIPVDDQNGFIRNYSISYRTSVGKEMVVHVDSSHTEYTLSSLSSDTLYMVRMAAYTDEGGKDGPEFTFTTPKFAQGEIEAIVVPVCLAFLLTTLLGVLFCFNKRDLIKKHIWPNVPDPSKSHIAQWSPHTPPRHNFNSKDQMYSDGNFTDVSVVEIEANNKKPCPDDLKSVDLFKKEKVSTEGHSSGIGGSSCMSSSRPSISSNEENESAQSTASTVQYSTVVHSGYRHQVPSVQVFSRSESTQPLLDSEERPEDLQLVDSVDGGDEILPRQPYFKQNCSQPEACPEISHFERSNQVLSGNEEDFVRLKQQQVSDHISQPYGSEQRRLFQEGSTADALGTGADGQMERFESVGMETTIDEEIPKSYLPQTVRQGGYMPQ

B1: Recombinant human IL27 (R&D Systems cat# 2526-IL-010/CF), Human EBI3-…-Human p28-6-His tag (ligand)
chain: RKGPPAALTLPRVQCRASRYPIAVDCSWTLPPAPNSTSPVSFIATYRLGMAARGHSWPCLQQTPTSTSCTITDVQLFSMAPYVLNVTAVHPWGSSSSFVPFITEHIIKPDPPEGVRLSPLAERQLQVQWEPPGSWPFPEIFSLKYWIRYKRQGAARFHRVGPIEATSFILRAVRPRARYYVQVAAQDLTDYGELSDWSLPATATMSLGKGSGSSRGGSGSGGSGGGGSKLAGVWGFPRPPGRPQLSLQELRREFTVSLHLARKLLSEVRGQAHRFAESHLPGVNLYLLPLGEQLPDVSLTFQAWRRLSDPERLCFISTTLQPFHALLGGLGTQGRWTNMERMQLWAMRLDLRDLQRHLRFQVLAAGFNLPEEEEEEEEEEEEERKGLLPGALGSALQGPAQVSWPQLLSTYRLLHSLELVLSRAVRELLLLSKAGHSVWPLGFPTLSPQPHHHHHH
B2: IL27M2, Mouse p28-(GGGGS)3-Fc (Knob) with Mouse EBI3-(GGGGS)3-Fc (Hole/star) (Fc fusion)
chain 1: FPTDPLSLQELRREFTVSLYLARKLLSEVQGYVHSFAESRLPGVNLDLLPLGYHLPNVSLTFQAWHHLSDSERLCFLATTLRPFPAMLGGLGTQGTWTSSEREQLWAMRLDLRDLHRHLRFQVLAAGFKCSKEEEDKEEEEEEEEEEKKLPLGALGGPNQVSSQVSWPQLLYTYQLLHSLELVLSRAVRDLLLLSLPRRPGSAWDSGGGGSGGGGSGGGGSESKYGPPCPPCPAPPVAGPSVFLFPPKPKDTLMISRTPEVTCVVVDVSQEDPEVQFNWYVDGVEVHNAKTKPREEQFNSTYRVVSVLTVLHQDWLNGKEYKCKVSNKGLPSSIEKTISKAKGQPREPQVYTLPPSQEEMTKNQVSLWCLVKGFYPSDIAVEWESNGQPENNYKTTPPVLDSDGSFFLYSRLTVDKSRWQEGNVFSCSVMHEALHNHYTQKSLSLSLGK
chain 2: YTETALVALSQPRVQCHASRYPVAVDCSWTPLQAPNSTRSTSFIATYRLGVATQQQSQPCLQRSPQASRCTIPDVHLFSTVPYMLNVTAVHPGGASSSLLAFVAERIIKPDPPEGVRLRTAGQRLQVLWHPPASWPFPDIFSLKYRLRYRRRGASHFRQVGPIEATTFTLRNSKPHAKYCIQVSAQDLTDYGKPSDWSLPGQVESAPHKPGGGGSGGGGSGGGGSESKYGPPCPPCPAPPVAGPSVFLFPPKPKDTLMISRTPEVTCVVVDVSQEDPEVQFNWYVDGVEVHNAKTKPREEQFNSTYRVVSVLTVLHQDWLNGKEYKCKVSNKGLPSSIEKTISKAKGQPREPQVYTLPPSQEEMTKNQVSLSCAVKGFYPSDIAVEWESNGQPENNYKTTPPVLDSDGSFFLVSRLTVDKSRWQEGNVFSCSVMHEALHNRFTQKSLSLSPGK
B3: IL27M1, Mouse EBI3-(GGGS)4-p28-(GGGGS)3-Fc (Fc fusion)
chain: YTETALVALSQPRVQCHASRYPVAVDCSWTPLQAPNSTRSTSFIATYRLGVATQQQSQPCLQRSPQASRCTIPDVHLFSTVPYMLNVTAVHPGGASSSLLAFVAERIIKPDPPEGVRLRTAGQRLQVLWHPPASWPFPDIFSLKYRLRYRRRGASHFRQVGPIEATTFTLRNSKPHAKYCIQVSAQDLTDYGKPSDWSLPGQVESAPHKPGGGSGGGSGGGSGGGSFPTDPLSLQELRREFTVSLYLARKLLSEVQGYVHSFAESRLPGVNLDLLPLGYHLPNVSLTFQAWHHLSDSERLCFLATTLRPFPAMLGGLGTQGTWTSSEREQLWAMRLDLRDLHRHLRFQVLAAGFKCSKEEEDKEEEEEEEEEEKKLPLGALGGPNQVSSQVSWPQLLYTYQLLHSLELVLSRAVRDLLLLSLPRRPGSAWDSGGGGSGGGGSGGGGSESKYGPPCPPCPAPPVAGPSVFLFPPKPKDTLMISRTPEVTCVVVDVSQEDPEVQFNWYVDGVEVHNAKTKPREEQFNSTYRVVSVLTVLHQDWLNGKEYKCKVSNKGLPSSIEKTISKAKGQPREPQVYTLPPSQEEMTKNQVSLTCLVKGFYPSDIAVEWESNGQPENNYKTTPPVLDSDGSFFLYSRLTVDKSRWQEGNVFSCSVMHEALHNHYTQKSLSLSLGK

Tests used:
Experiment in all cases: cell-based or functional assay
[1] = target: human IL27 receptor (IL27Ra and gp130) on NCI-H929/GAS-Luc cells (human) (UniProt Q6UWB1)
Sequence of human IL27 receptor (IL27Ra and gp130) on NCI-H929/GAS-Luc cells (human) (Q6UWB1 33-636, chain 1 of 2): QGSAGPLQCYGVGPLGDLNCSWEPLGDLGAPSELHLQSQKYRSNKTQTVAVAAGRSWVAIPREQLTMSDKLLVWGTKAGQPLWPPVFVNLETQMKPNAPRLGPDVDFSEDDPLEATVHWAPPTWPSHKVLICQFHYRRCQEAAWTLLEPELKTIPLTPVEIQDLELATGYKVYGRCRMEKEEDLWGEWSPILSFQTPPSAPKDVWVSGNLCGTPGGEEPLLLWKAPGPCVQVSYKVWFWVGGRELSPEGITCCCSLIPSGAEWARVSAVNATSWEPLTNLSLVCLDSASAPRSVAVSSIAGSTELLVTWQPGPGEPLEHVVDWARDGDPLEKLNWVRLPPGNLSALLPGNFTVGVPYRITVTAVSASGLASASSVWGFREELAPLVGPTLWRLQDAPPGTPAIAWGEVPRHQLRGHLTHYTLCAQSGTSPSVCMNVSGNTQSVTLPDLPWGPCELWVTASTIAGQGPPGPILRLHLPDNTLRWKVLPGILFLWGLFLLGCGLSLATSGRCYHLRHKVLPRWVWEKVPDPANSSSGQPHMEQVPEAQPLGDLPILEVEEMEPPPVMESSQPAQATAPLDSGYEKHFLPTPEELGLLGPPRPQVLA
Sequence of human IL27 receptor (IL27Ra and gp130) on NCI-H929/GAS-Luc cells (human) (chain, as listed by the source, chain 2 of 2): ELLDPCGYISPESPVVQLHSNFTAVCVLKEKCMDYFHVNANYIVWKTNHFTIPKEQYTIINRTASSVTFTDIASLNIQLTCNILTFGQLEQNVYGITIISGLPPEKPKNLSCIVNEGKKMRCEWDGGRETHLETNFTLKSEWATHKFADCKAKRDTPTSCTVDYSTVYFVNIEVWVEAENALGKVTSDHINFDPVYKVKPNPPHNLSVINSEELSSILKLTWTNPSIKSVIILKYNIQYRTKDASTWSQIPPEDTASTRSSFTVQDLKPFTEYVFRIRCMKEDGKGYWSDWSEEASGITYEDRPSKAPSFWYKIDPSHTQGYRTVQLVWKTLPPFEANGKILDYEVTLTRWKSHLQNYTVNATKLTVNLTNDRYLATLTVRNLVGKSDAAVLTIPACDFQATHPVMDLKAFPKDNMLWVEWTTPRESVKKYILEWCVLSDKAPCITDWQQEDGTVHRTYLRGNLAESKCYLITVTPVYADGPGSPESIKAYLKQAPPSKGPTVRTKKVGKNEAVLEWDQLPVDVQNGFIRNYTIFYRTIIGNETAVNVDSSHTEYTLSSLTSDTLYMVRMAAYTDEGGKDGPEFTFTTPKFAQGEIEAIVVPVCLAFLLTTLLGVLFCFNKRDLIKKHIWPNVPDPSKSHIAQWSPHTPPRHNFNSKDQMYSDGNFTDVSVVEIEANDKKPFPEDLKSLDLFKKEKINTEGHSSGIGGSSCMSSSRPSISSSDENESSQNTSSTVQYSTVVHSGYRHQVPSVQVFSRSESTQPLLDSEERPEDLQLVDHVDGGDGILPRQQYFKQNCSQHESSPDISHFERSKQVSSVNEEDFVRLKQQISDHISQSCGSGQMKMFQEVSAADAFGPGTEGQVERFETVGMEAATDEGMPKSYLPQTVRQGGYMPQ

[2] = target: T1, murine IL27 receptor (IL27Ra and gp130) …
[3] = target: T1, murine IL27 receptor (IL27Ra and gp130) …; remark: listed apart in the source

Row | Binder | EC50 (M), GAS luciferase, NCI-H929/GAS-Luc cells [1] [M] | FOLD INDUCTION, GAS luciferase, NCI-H929/GAS-Luc cells [1] [fold] | EC50, luciferase activity, MC9/STAT3-Luc reporter cells [2] [nM] | EC50, phosphorylation of STAT1 in CD4+ T-cells [2] [µg/mL] | EC50 (M), STAT3 luciferase, MC9 cells [3] [M] | FOLD INDUCTION, STAT3 luciferase, MC9 cells [3] [fold]
1 | B1 | 3.34e-10 | 12.3 | – | – | – | –
2 | B2 | – | – | ~0.0032 | ~0.0224 | – | –
3 | B3 | – | – | ~0.48 | ~2 | 1.01e-09 | 2.95
